# Experimental data published in patent publication US20240116985A1 (published 2024).
# Starred links: 1 amine or outer side, 2 acyl side, 3 side chain; linkers in the order of their positions; H or OH if unused. Positions of bridges follow the written chain, without caps; N, C: chain ends. Non-standard residues stand in square brackets, D forms with d. Primed or numbered codes have the meaning given here. *: point of attachment. PyrS2(3) = (S)-3-amino-1-((pent-4-en-1-yloxy)carbonyl)pyrrolidine-3-carboxylic acid, stapling residue, C=CCCCOC(=O)N1CC[C@@](N[*:1])(C(=O)[*:2])C1; PyrS2″ = (S)-3-amino-1-((pent-4-en-1-yloxy)carbonyl)pyrrolidine-3-carboxylic acid (stapling residue), C=CCCCOC(=O)N1CC[C@@](N[*:1])(C(=O)[*:2])C1; B5(18) = 2,2-bis(4-pentenyl)glycine (2-amino-2-(pent-4-en-1-yl)hept-6-enoic acid), stitching residue, C=CCCCC(CCCC=C)(N[*:1])C(=O)[*:2]; TfeGA = (S)-2-amino-3-((carboxymethyl)(2,2,2-trifluoroethyl)amino)propanoic acid, O=C([C@H](CN(CC(=O)[*:3])CC(F)(F)F)N[*:1])[*:2]; 2COOH4NO2Ph = 2-carboxy-4-nitrophenyl group on the side chain (attached at Dap N or Cys S), O=C(O)c1cc([N+](=O)[O-])ccc1*; HypEs5 = (2R,4S)-4-(pent-4-enoyloxy)pyrrolidine-2-carboxylic acid, C=CCCC(=O)O[C@H]1C[C@H](C(=O)[*:2])N([*:1])C1; GAbu = (S)-2-amino-4-((carboxymethyl)amino)butanoic acid, O=C([C@H](CCNCC(=O)[*:3])N[*:1])[*:2]; TriAzDap = Dap whose side chain is a 1H-1,2,3-triazol-1-yl bearing the bracketed 4-substituent; B5(3) = 2,2-bis(4-pentenyl)glycine (stitching residue), C=CCCCC(CCCC=C)(N[*:1])C(=O)[*:2]; Phe(3-COOH) = N[C@@H](Cc1cccc(C(=O)O)c1)C(=O)O; Phe(2-Cl) = N[C@@H](Cc1ccccc1Cl)C(=O)O; Bta = N[C@@H](Cc1csc2ccccc12)C(=O)O; αAllylPro = C=CC[C@@]1(C(=O)O)CCCN1; tBuAla = CC(C)(C)C[C@H](N)C(=O)O; 3Thi = N[C@@H](Cc1ccsc1)C(=O)O; Cit = NC(=O)NCCC[C@H](N)C(=O)O; 2Nic = not defined here; Dap = NC[C@H](N)C(=O)O
# T1: B-cat-Halo (UniProt P35222 1-781)
# T1 sequence (looked up): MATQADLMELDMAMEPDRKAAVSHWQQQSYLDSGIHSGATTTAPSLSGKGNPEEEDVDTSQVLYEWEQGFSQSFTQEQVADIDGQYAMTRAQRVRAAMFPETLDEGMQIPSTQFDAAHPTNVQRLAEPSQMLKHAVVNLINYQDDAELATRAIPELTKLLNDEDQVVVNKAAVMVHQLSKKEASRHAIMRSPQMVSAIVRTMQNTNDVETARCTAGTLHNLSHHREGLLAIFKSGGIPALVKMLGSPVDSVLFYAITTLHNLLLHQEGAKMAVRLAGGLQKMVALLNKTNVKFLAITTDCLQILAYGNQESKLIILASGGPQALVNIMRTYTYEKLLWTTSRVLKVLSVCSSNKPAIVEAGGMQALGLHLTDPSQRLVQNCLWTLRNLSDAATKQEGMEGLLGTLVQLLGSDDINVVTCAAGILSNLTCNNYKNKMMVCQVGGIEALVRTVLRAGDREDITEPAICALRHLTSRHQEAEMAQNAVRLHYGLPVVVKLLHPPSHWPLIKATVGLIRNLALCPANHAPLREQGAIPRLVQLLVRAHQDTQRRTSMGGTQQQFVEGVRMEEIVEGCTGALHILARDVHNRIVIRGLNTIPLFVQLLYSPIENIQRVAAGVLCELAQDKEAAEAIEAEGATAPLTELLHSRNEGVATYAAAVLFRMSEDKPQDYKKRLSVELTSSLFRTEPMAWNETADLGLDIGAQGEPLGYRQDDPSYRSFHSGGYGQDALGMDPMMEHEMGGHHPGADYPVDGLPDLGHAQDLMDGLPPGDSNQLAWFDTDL
# T2: B-cat-Halo (beta-catenin HaloTag construct expressed in HEK293 cells) (UniProt P35222 1-781)
# T2 sequence (looked up): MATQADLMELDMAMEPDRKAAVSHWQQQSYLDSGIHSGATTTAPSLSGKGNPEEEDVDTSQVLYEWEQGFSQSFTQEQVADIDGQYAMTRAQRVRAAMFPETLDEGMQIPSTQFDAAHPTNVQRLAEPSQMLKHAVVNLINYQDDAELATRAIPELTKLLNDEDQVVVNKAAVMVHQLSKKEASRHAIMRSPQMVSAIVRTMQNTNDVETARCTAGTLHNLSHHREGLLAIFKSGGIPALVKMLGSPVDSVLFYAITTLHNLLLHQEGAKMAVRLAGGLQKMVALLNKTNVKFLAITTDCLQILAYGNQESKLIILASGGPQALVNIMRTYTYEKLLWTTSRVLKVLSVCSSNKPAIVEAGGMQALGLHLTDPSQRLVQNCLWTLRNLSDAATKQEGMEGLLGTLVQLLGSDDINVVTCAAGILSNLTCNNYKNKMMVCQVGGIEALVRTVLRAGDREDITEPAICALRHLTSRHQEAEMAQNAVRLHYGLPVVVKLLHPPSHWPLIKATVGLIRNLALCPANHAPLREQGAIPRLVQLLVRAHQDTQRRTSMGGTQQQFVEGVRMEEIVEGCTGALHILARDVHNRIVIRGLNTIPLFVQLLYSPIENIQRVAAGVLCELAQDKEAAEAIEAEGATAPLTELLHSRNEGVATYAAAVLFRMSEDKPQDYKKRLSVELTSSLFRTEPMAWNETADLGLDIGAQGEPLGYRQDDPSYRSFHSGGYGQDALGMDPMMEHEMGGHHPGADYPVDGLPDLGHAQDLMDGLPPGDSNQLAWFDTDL
# Target: T1, B-cat-Halo
# Assay: cell-based or functional assay
row,NanoBRET Abs IC50,Binder
1,22.3 µM,"Ac-[αAllylPro]D[tBuAla][B5(3)]D[Cit]AAFN[PyrS2″][3Thi][Bta]Q-NH2 (staple 1-4, 4-11) [I-840]"

# Target: T2, B-cat-Halo (beta-catenin HaloTag …)
# Assay: cell-based or functional assay
row,NanoBRET Abs IC50,Binder
1,3.8 µM,"Ac-[αAllylPro]D[tBuAla][B5(18)]D[Phe(3-COOH)]AAFL[PyrS2(3)][Phe(2-Cl)][Bta]A-NH2 (staple 1-4, 4-11) [I-1851]"
2,29.8 µM,"Ac-[HypEs5]D[tBuAla][B5(18)]D[TfeGA]AAFT[PyrS2(3)][Phe(2-Cl)][Bta]Q-NH2 (staple 1-4, 4-11) [I-1846]"
3,3.8 µM,"Ac-[αAllylPro]D[tBuAla][B5(18)]D[Phe(3-COOH)]AAFV[PyrS2(3)][Phe(2-Cl)][Bta]S-NH2 (staple 1-4, 4-11) [I-1850]"
4,16.3 µM,"Ac-[αAllylPro]N[tBuAla][B5(18)]D[Phe(3-COOH)]AAFL[PyrS2(3)][Phe(2-Cl)][Bta]S-NH2 (staple 1-4, 4-11) [I-1853]"
5,6.3 µM,"Ac-[αAllylPro]D[tBuAla][B5(18)]D[Dap](2Nic)AAFL[PyrS2(3)][3Thi][Bta]Q-NH2 (staple 1-4, 4-11; reading uncertain) [I-1845]"
6,37.3 µM,"Ac-[αAllylPro]D[tBuAla][B5(18)]D[TfeGA]AAF[TriAzDap](CH2NMe2)[PyrS2(3)][3Thi][Bta]Q-NH2 (staple 1-4, 4-11; not fully specified) [I-1861]"
7,22.3 µM,"Ac-[αAllylPro]D[tBuAla][B5(18)]D[GAbu](Ac)AAFL[PyrS2(3)][3Thi][Bta]Q-NH2 (staple 1-4, 4-11; also: double bonds not converted) [I-1840]"
8,9.5 µM,"Ac-[αAllylPro]D[tBuAla][B5(18)]D[Dap](2COOH4NO2Ph)AAFL[PyrS2(3)][3Thi][Bta]Q-NH2 (staple 1-4, 4-11) [I-1843]"
9,> 20 µM,"Ac-[αAllylPro]D[tBuAla][B5(18)]D[GAbu]AAFL[PyrS2(3)][3Thi][Bta]Q-NH2 (staple 1-4, 4-11) [I-1841]"
10,> 20 µM,"Ac-[αAllylPro]D[tBuAla][B5(18)]DC(2COOH4NO2Ph)AAFL[PyrS2(3)][3Thi][Bta]Q-NH2 (staple 1-4, 4-11) [I-1848]"
11,19.3 µM,"Ac-[αAllylPro]D[tBuAla][B5(18)]D[TfeGA]AAF[TriAzDap](CH2NMe2)[PyrS2(3)][3Thi][Bta]Q-NH2 (staple 1-4, 4-11; not fully specified) [I-1862]"
12,4.9 µM,"Ac-[αAllylPro]D[tBuAla][B5(18)]D[Phe(3-COOH)]AAFL[PyrS2(3)][Phe(2-Cl)][Bta]-NH2 (staple 1-4, 4-11) [I-1852]"
13,8.8 µM,"Ac-[αAllylPro]D[tBuAla][B5(18)]D[Phe(3-COOH)]AAFA[PyrS2(3)][Phe(2-Cl)][Bta]S-NH2 (staple 1-4, 4-11) [I-1849]"
14,26.2 µM,"Ac-[HypEs5]D[tBuAla][B5(18)]D[Phe(3-COOH)]AAFL[PyrS2(3)][Phe(2-Cl)][Bta]Q-NH2 (staple 1-4, 4-11) [I-1847]"
